Patent US20090280528

Key:
[1] = tested on: T1, Sbo13I restriction endonuclease (Shigella boydii 13); assay: cleavage_in_vitro; conditions: 37 C, 10 mM Mg, 55 mM NaCl, pH 7.5; approximate value; lambda DNA assay
T1 sequence: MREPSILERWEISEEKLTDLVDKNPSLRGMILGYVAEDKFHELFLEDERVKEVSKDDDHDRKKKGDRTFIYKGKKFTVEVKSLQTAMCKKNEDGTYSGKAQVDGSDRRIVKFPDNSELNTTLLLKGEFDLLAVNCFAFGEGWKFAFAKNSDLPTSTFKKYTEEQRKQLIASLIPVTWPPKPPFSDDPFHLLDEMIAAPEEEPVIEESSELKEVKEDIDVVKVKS

[2] = tested on: T2, NruI restriction endonuclease (recombinant) (Nocardia rubra); assay: cleavage_in_vitro; conditions: 37 C, 30 min, NEB buffer 2; complete digestion pattern; approximate value
T2 sequence: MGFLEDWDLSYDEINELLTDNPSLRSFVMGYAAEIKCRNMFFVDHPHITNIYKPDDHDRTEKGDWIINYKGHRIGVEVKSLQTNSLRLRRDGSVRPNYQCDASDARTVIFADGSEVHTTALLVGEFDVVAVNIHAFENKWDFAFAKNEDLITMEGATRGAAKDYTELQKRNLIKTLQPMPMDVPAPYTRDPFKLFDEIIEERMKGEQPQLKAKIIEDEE

## Lambda phage DNA
[1]
  activity (units per gram wet cell paste): 100000
[2]
  activity (units per gram wet cells): 6.5e+06
